In patent US20100311820, “NUCLEIC ACID MODULATORS OF GLYCOPROTEIN VI” (Regado Biosciences, Inc, published 2010):

T1: Glycoprotein VI extracellular domain (Gln21-Lys267) (Homo sapiens, UniProt Q9HCN6 SEQ:1-247)
T1 chain: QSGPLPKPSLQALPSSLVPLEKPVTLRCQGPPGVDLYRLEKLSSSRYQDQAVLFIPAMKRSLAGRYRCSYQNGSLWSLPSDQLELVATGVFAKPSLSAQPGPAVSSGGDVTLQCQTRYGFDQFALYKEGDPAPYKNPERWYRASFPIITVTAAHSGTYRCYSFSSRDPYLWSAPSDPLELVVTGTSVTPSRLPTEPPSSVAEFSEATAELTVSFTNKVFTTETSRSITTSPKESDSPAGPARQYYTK

B1: EF-3 annealed to 3' DNA primer (mixed)
RNA: GGGAGGACGAUGCGGAUCACACCGCGUCUUGCGUAAGCCUCCUACUAACGGAUCGCAGACGACUCGCUGAGGAUCCGAGA
DNA: TCTCGGATCCTCAGCGAGTCGTCTG
modifications: RNA strand 2'-F C and U; 2'-OH A and G

Experiments:
[1] = molecular target: T1, Glycoprotein VI extracellular domain …; assay: filter; equivalent to full-length EF-1; conditions: tags: C-terminal His6; R&D Systems 3627-GP; label: 5'-32P
Experimental: Enrichment of the ligand libraries for GPVI was monitored in direct binding studies utilizing radiolabeled ligand RNA from respective rounds of SELEX and soluble GPVI. Binding studies were performed with trace P³² end-labeled RNA added to serial dilutions of GPVI in Binding Buffer F. To prepare radiolabeled RNAs for binding studies, one hundred picomoles of RNA was dephosphorylated with Bacterial Alkaline Phopshatase at 50° C. for 1 hour. The reaction was phenol:chloroform:isoamyl alcohol (25:24:1) extracted, chloroform: isoamyl:alcohol (24:1) extracted, and ethanol precipitated. Three pmoles of dephosphorylated RNA was end labeled with T4 Poylnucleotide Kinase with supplied buffer, and 20 μCi of γ-P³²-ATP and subsequently cleaned with a Biorad MicroBio Spin P-30 spin column. End-labeled RNA was diluted to a final concentration of 2000 cpm/μL and heat denatured at 65° C. for 5 minutes. RNA and GPVI dilutions were equilibrated at 37° C. prior to use. RNA (5 μL) was added to varying concentrations of GPVI (15 μL) at 37° C. and incubated together for 5 to 15 minutes. […] The membranes were exposed to a phosphorimager screen, scanned, and quantitated with a Molecular Dynamics Storm 840 Phosphorimager. The fraction bound was calculated by dividing the counts on the nitrocellulose by the total counts and adjusting for the background. […]

[2] = molecular target: T1, Glycoprotein VI extracellular domain …; assay: filter; binding comparable with and without annealed 3' primer; conditions: tags: C-terminal His6; R&D Systems 3627-GP; label: 5'-32P; 3' fixed region paired with DNA primer
Experimental: The reaction was phenol:chloroform:isoamyl alcohol (25:24:1) extracted, chloroform: isoamyl:alcohol (24:1) extracted, and ethanol precipitated. Three pmoles of dephosphorylated RNA was end labeled with T4 Poylnucleotide Kinase with supplied buffer, and 20 μCi of γ-P³²-ATP and subsequently cleaned with a Biorad MicroBio Spin P-30 spin column. End-labeled RNA was diluted to a final concentration of 2000 cpm/μL and heat denatured at 65° C. for 5 minutes. RNA and GPVI dilutions were equilibrated at 37° C. prior to use. RNA (5 μL) was added to varying concentrations of GPVI (15 μL) at 37° C. and incubated together for 5 to 15 minutes. The complexed RNA/GPVI protein mixture was then loaded over a Protean BA85 nitrocellulose membrane, overlayed on a Genescreen Plus Nylon membrane, in a 96 well vacuum manifold system with washing. The membranes were exposed to a phosphorimager screen, scanned, and quantitated with a Molecular Dynamics Storm 840 Phosphorimager. The fraction bound was calculated by dividing the counts on the nitrocellulose by the total counts and adjusting for the background. Results for binding of enriched ligand libraries from round 10 E2 and round 10 EF of the SELEX as compared to the GPVI-naïve starting ligand library are shown in FIG. 3. […]

Binder | Kd [1] [nM] | binding result [2]
GGGAGGACGAUGCGGCAAUCGAAGCUGCAUCCAGCGUAAGCCUUCC (ssRNA, 2'-F C and U; 2'-OH A and G) [EF-1 T1 (RB426)] | > 40 | –
B1 | – | binds
